Data published in PMC7954794, “Protein context shapes the specificity of SH3 domain-mediated interactions in vivo” (Nature Communications, 2021).

B1: HSE1 (protein, UniProt P38753 2-452, looked up)
Class E vacuolar …: SSSAIKIRNALLKATDPKLRSDNWQYILDVCDLVKEDPEDNGQEVMSLIEKRLEQQDANVILRTLSLTVSLAENCGSRLRQEISSKNFTSLLYALIESHSVHITLKKAVTDVVKQLSDSFKDDPSLRAMGDLYDKIKRKAPYLVQPNVPEKHNMSTQADNSDDEELQKALKMSLFEYEKQKKLQEQEKESAEVLPQQQQQHQQQNQAPAHKIPAQTVVRRVRALYDLTTNEPDELSFRKGDVITVLEQVYRDWWKGALRGNMGIFPLNYVTPIVEPSKEEIEKEKNKEAIVFSQKTTIDQLHNSLNAASKTGNSNEVLQDPHIGDMYGSVTPLRPQVTRMLGKYAKEKEDMLSLRQVLANAERSYNQLMDRAANAHISPPVPGPALYAGMTHANNTPVMPPQRQSYQSNEYSPYPSNLPIQHPTNSANNTPQYGYDLGYSVVSQPPPGYEQ
B2: LSB1 (protein, UniProt P53281 2-241, looked up)
LAS seventeen-binding protein …: SASLVNRSLKNIRNELEFLKESNVISGDIFELINSKLPEKWDGNQRSPQNADTEEYVEALYDFEAQQDGDLSLKTGDKIQVLEKISPDWYRGKSNNKIGIFPANYVKPAFTRSASPKSAEAASSSTVSRPSVPPPSYEPAASQYPSQQVSAPYAPPAGYMQAPPPQQQQAPLPYPPPFTNYYQQPQQQYAPPSQQAPVEAQPQQSSGASSAFKSFGSKLGNAAIFGAGSAIGSDIVNSIF

Test system: Abp1 PPIs
Assay: DHFR-PCA of Abp1 SH3-swapped baits (Fig. 2B-D, S2C, S2F);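 on Protein-protein interaction distance between Abp1 SH3-swapped baits, to ABP1: Euclidean distance between DHFR-PCA score profiles of the baits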;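 on Protein-protein interaction distance between Abp1 SH3-swapped baits, to BEM1-2: Euclidean distance between DHFR-PCA score profiles of the baits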;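 on Protein-protein interaction distance between Abp1 SH3-swapped baits, to BOI1: Euclidean distance between DHFR-PCA score profiles of the baits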;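 on Protein-protein interaction distance between Abp1 SH3-swapped baits, to BZZ1-1: Euclidean distance between DHFR-PCA score profiles of the baits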
Type: cell-based, Saccharomyces cerevisiae
Details: for Protein-protein interaction distance between Abp1 SH3-swapped baits, to ABP1: Abp1 bait with swapped SH3, distance to bait with ABP1 SH3; for Protein-protein interaction distance between Abp1 SH3-swapped baits, to BBC1: distance to Abp1 bait with BBC1 SH3; for Protein-protein interaction distance between Abp1 SH3-swapped baits, to BEM1-1: distance to Abp1 bait with BEM1-1 SH3; for Protein-protein interaction distance between Abp1 SH3-swapped baits, to BEM1-2: distance to Abp1 bait with BEM1-2 SH3; for Protein-protein interaction distance between Abp1 SH3-swapped baits, to BOI1: distance to Abp1 bait with BOI1 SH3; for Protein-protein interaction distance between Abp1 SH3-swapped baits, to BOI2: distance to Abp1 bait with BOI2 SH3; for Protein-protein interaction distance between Abp1 SH3-swapped baits, to BUD14: distance to Abp1 bait with BUD14 SH3; for Protein-protein interaction distance between Abp1 SH3-swapped baits, to BZZ1-1: distance to Abp1 bait with BZZ1-1 SH3; for Protein-protein interaction distance between Abp1 SH3-swapped baits, to BZZ1-2: distance to Abp1 bait with BZZ1-2 SH3; for Protein-protein interaction distance between Abp1 SH3-swapped baits, to CDC25: distance to Abp1 bait with CDC25 SH3; for Protein-protein interaction distance between Abp1 SH3-swapped baits, to CTTN: distance to Abp1 bait with CTTN SH3; for Protein-protein interaction distance between Abp1 SH3-swapped baits, to CYK3: distance to Abp1 bait with CYK3 SH3; for Protein-protein interaction distance between Abp1 SH3-swapped baits, to DBNL: distance to Abp1 bait with DBNL SH3; for Protein-protein interaction distance between Abp1 SH3-swapped baits, to FUS1: distance to Abp1 bait with FUS1 SH3; for Protein-protein interaction distance between Abp1 SH3-swapped baits, to HCLS1: distance to Abp1 bait with HCLS1 SH3; for Protein-protein interaction distance between Abp1 SH3-swapped baits, to HOF1: distance to Abp1 bait with HOF1 SH3; for Protein-protein interaction distance between Abp1 SH3-swapped baits, to HSE1: distance to Abp1 bait with HSE1 SH3; for Protein-protein interaction distance between Abp1 SH3-swapped baits, to LSB1: distance to Abp1 bait with LSB1 SH3; for Protein-protein interaction distance between Abp1 SH3-swapped baits, to LSB3: distance to Abp1 bait with LSB3 SH3; for Protein-protein interaction distance between Abp1 SH3-swapped baits, to MYO3: distance to Abp1 bait with MYO3 SH3; for Protein-protein interaction distance between Abp1 SH3-swapped baits, to MYO5: distance to Abp1 bait with MYO5 SH3; for Protein-protein interaction distance between Abp1 SH3-swapped baits, to NBP2: distance to Abp1 bait with NBP2 SH3; for Protein-protein interaction distance between Abp1 SH3-swapped baits, to PIN3: distance to Abp1 bait with PIN3 SH3; for Protein-protein interaction distance between Abp1 SH3-swapped baits, to RVS167: distance to Abp1 bait with RVS167 SH3; for Protein-protein interaction distance between Abp1 SH3-swapped baits, to SDC25: distance to Abp1 bait with SDC25 SH3; for Protein-protein interaction distance between Abp1 SH3-swapped baits, to SHO1: distance to Abp1 bait with SHO1 SH3; for Protein-protein interaction distance between Abp1 SH3-swapped baits, to SLA1-1: distance to Abp1 bait with SLA1-1 SH3; for Protein-protein interaction distance between Abp1 SH3-swapped baits, to SLA1-2: distance to Abp1 bait with SLA1-2 SH3; for Protein-protein interaction distance between Abp1 SH3-swapped baits, to SLA1-3: distance to Abp1 bait with SLA1-3 SH3; for Protein-protein interaction distance between Abp1 SH3-swapped baits, to YSC84: distance to Abp1 bait with YSC84 SH3; for PPIs gained by Abp1 - SH3-dependent PPIs gained by Abp1 / SH3-dependent PPIs - SH3-dependent PPIs gained by Abp1 / SH3-dependent PPIs gained by Abp1: number of PPIs, Abp1 SH3-swapped with the listed SH3, Fig2D,S2F; for PPIs gained by Abp1 - SH3-dependent PPIs gained by Abp1 / SH3-dependent PPIs - SH3-dependent PPIs gained by Abp1: difference; for SH3-dependent PPIs gained by Abp1: DHFR-PCA
Procedure, shortened: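 Interactions were scored by DHFR protein-fragment complementation. DHFR F[1,2]-tagged Abp1 strains, whose SH3 was swapped for yeast or human ortholog domains, were crossed on YPD at 30 °C for 48 h with a 1536-format array of 575 prey-DHFR F[3] strains and 40 negatives, giving four replicates per pair. PCA selection lasted 4 days after double diploid selection.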

| Molecule | Protein-protein interaction distance between Abp1 SH3-swapped baits, to ABP1 (sheet Fig2C) | Protein-protein interaction distance between Abp1 SH3-swapped baits, to BBC1 (sheet Fig2C) | Protein-protein interaction distance between Abp1 SH3-swapped baits, to BEM1-1 (sheet Fig2C) | Protein-protein interaction distance between Abp1 SH3-swapped baits, to BEM1-2 (sheet Fig2C) | Protein-protein interaction distance between Abp1 SH3-swapped baits, to BOI1 (sheet Fig2C) | Protein-protein interaction distance between Abp1 SH3-swapped baits, to BOI2 (sheet Fig2C) | Protein-protein interaction distance between Abp1 SH3-swapped baits, to BUD14 (sheet Fig2C) | Protein-protein interaction distance between Abp1 SH3-swapped baits, to BZZ1-1 (sheet Fig2C) | Protein-protein interaction distance between Abp1 SH3-swapped baits, to BZZ1-2 (sheet Fig2C) | Protein-protein interaction distance between Abp1 SH3-swapped baits, to CDC25 (sheet Fig2C) | Protein-protein interaction distance between Abp1 SH3-swapped baits, to CTTN (sheet Fig2C) | Protein-protein interaction distance between Abp1 SH3-swapped baits, to CYK3 (sheet Fig2C) | Protein-protein interaction distance between Abp1 SH3-swapped baits, to DBNL (sheet Fig2C) | Protein-protein interaction distance between Abp1 SH3-swapped baits, to FUS1 (sheet Fig2C) | Protein-protein interaction distance between Abp1 SH3-swapped baits, to HCLS1 (sheet Fig2C) | Protein-protein interaction distance between Abp1 SH3-swapped baits, to HOF1 (sheet Fig2C) | Protein-protein interaction distance between Abp1 SH3-swapped baits, to HSE1 (sheet Fig2C) | Protein-protein interaction distance between Abp1 SH3-swapped baits, to LSB1 (sheet Fig2C) | Protein-protein interaction distance between Abp1 SH3-swapped baits, to LSB3 (sheet Fig2C) | Protein-protein interaction distance between Abp1 SH3-swapped baits, to MYO3 (sheet Fig2C) | further results |
| --- | --- | --- | --- | --- | --- | --- | --- | --- | --- | --- | --- | --- | --- | --- | --- | --- | --- | --- | --- | --- | --- |
| B1 | 9.43 | 7.295 | 11.1 | 30.97 | 7.847 | 11.78 | 14.54 | 5.175 | 7.81 | 24.19 | 9.154 | 25.16 | 5.82 | 16.23 | 9.236 | 29.42 | 0.00 | 12.02 | 12.29 | 11.17 | Protein-protein interaction distance between Abp1 SH3-swapped baits, to MYO5 (sheet Fig2C): 10.84; Protein-protein interaction distance between Abp1 SH3-swapped baits, to NBP2 (sheet Fig2C): 13.88; Protein-protein interaction distance between Abp1 SH3-swapped baits, to PEX13 (distance to Abp1 bait with PEX13 SH3, sheet Fig2C): 8.715; Protein-protein interaction distance between Abp1 SH3-swapped baits, to PIN3 (sheet Fig2C): 9.808; Protein-protein interaction distance between Abp1 SH3-swapped baits, to RVS167 (sheet Fig2C): 7.315; Protein-protein interaction distance between Abp1 SH3-swapped baits, to SDC25 (sheet Fig2C): 31.59; Protein-protein interaction distance between Abp1 SH3-swapped baits, to SHO1 (sheet Fig2C): 5.64; Protein-protein interaction distance between Abp1 SH3-swapped baits, to SLA1-1 (sheet Fig2C): 27.26; Protein-protein interaction distance between Abp1 SH3-swapped baits, to SLA1-2 (sheet Fig2C): 16.63; Protein-protein interaction distance between Abp1 SH3-swapped baits, to SLA1-3 (sheet Fig2C): 11.86; Protein-protein interaction distance between Abp1 SH3-swapped baits, to YSC84 (sheet Fig2C): 12.83; PPIs gained by Abp1 - SH3-dependent PPIs gained by Abp1: 4; SH3-dependent PPIs - SH3-dependent PPIs gained by Abp1: 1; SH3-dependent PPIs gained by Abp1: 0 |
| B2 | 13.24 | 13.47 | 19.25 | 36.52 | 16.11 | 19.63 | 22.3 | 10.43 | 15.96 | 30.85 | 16.72 | 31.53 | 10.77 | 23.45 | 10.61 | 35.15 | 12.02 | 0.00 | 3.731 | 9.135 | Protein-protein interaction distance between Abp1 SH3-swapped baits, to MYO5 (sheet Fig2C): 7.822; Protein-protein interaction distance between Abp1 SH3-swapped baits, to NBP2 (sheet Fig2C): 21.49; Protein-protein interaction distance between Abp1 SH3-swapped baits, to PIN3 (sheet Fig2C): 5.513; Protein-protein interaction distance between Abp1 SH3-swapped baits, to RVS167 (sheet Fig2C): 7.392; Protein-protein interaction distance between Abp1 SH3-swapped baits, to SDC25 (sheet Fig2C): 37.12; Protein-protein interaction distance between Abp1 SH3-swapped baits, to SHO1 (sheet Fig2C): 11.57; Protein-protein interaction distance between Abp1 SH3-swapped baits, to SLA1-1 (sheet Fig2C): 33.34; Protein-protein interaction distance between Abp1 SH3-swapped baits, to SLA1-2 (sheet Fig2C): 24.03; Protein-protein interaction distance between Abp1 SH3-swapped baits, to SLA1-3 (sheet Fig2C): 5.759; Protein-protein interaction distance between Abp1 SH3-swapped baits, to YSC84 (sheet Fig2C): 3.911; PPIs gained by Abp1 - SH3-dependent PPIs gained by Abp1: 41; SH3-dependent PPIs - SH3-dependent PPIs gained by Abp1: 8; SH3-dependent PPIs gained by Abp1: 0 |
